Our source for the Km and kcat values is patent publication US20210277441A1, “METHOD OF SELECTING A POLYPEPTIDE OF INTEREST” (IMPERIAL COLLEGE INNOVATIONS LIMITED, priority 2018, published 2021).

Series [1] has as its system O=C(O)c1ccccc1[N+](=O)[O-]. The series can be described thus: purified protein, by the assay type. The note with it: other: cofactor NADH; enzyme 1 uM.
The test system of a further series is O=[N+]([O-])c1ccc(CO)cc1. Briefly: purified protein, by the assay type. Particulars: other: cofactor NADH; enzyme 1 uM.

“Enterobacter cloacae nitroreductase (EntNFSB) variant EntNFSB-s1, S40A/T41I/F124A, SEQ ID NO: 38 (Enterobacter cloacae; F124A/S40A/T41I)”: the Km in series [1] was 4.05 mM. For the substance “Enterobacter cloacae nitroreductase (EntNFSB), wild type, SEQ ID NO: 37 (Enterobacter cloacae)”, in the series on O=[N+]([O-])c1ccc(CO)cc1, the Km is recorded as 9.52 mM mM and the kcat is 8.76 min-1 min-1.
